Test results published in patent US20230109318A1 (OBLIQUE THERAPEUTICS, published 2023).
Positions count from the first letter of the chain named. No end group written: not given here.

T1: "wild-type" (WT) peptide having the amino acid sequence CGAGGVGKSALTI (SEQ ID NO:160)
T1 peptide: CGAGGVGKSALTI

T2: isolated G13D Ab1 peptide of SEQ ID NO:5 (human)
T2 peptide: CGAGDVGKSALTI-NH2

B1: 4B8-1 (antibody, V domains shown)
VH: EVQLQQSGPERVKPGASVKMSCKASGYTFTDYSMHWVKQSHGKSLEWIGYINPNNGGASYNQKFKGKATLTVNKSSSTAYMELRSLTSEDSAVYYCARGDYYGGGYWGQGTTLTVSS
VL: ENVLTQSPAIMSASPGEKVTMTCSASSSVSYMHWYQQKSSTSPKLWIYDTSKVASGVPGRFSGSGSGNSYSLTINSMEAEDVATYYCFQGSGYPLTFGAGTKLELK
notes: Mouse monoclonal IgG from a hybridoma, tested as hybridoma supernatant
B2: 7D11-1 (antibody, V domains shown)
VH: QVQLQQPGAEFVKPGASVKLSCKASGYTFTRYWMHWVKQRPGRGLEWIGRIDPNSGGTTFNEKFKSKATLTVDKPSSTAYMQLSSLTSEDSAVYYCAREVGGYWGQGTTLTVSS
VL: B1 VL with S26G, S30D, V53L, N75S, K106R
notes: as for B1
B3: 11D6-1 (antibody, V domains shown)
VH: EVQLQQSGPELVKPGASVKMSCKTSGYTFTDYTMHWVKQSHGKSLEWIGYINPNNGGTYYNQRFKGKATLTVSRSSSTAYIELRSLTSDDSAVYYCARGDYYGGGYWGQGTTLRVSS
VL: B1 VL with S26G, V53L, N75S, A99D
notes: as for B1
B4: 7G2-1 (antibody, V domains shown)
VH: QVTLKESGPGILQPSQTLSLTCSFSGFSLSTFGMGVGWIRQPSGKGLEWLAHIWWDDDKNYNPALKSRLTISKDTSKNQVFFKIANVDTADTATYYCVQLSTMGDGGYWGQGTLVTVSA
VL: NIVMTQSPKSMSMSVGERVTLSCKASENVGTYVSWYQQKPGQSPKLLIYGASNRYTGVPDRFTGSGSGTDFILTISSVQAEDLADYHCGQSYNYPFTFGSGTKLEIK
notes: as for B1

Key:
[1] = target: T1, "wild-type" (WT) peptide having the …; assay: further ELISA on WT peptide; weaker than on the mutant peptide
[2] = target: T2, isolated G13D Ab1 peptide of SEQ ID NO:5; assay: ELISA, hybridoma supernatant on dilutions of the peptide, absorbance at 405 nm
[3] = target: T2, isolated G13D Ab1 peptide of SEQ ID NO:5; assay: further ELISA, mutant peptide compared with WT peptide

| Binder | binding result [1] | binding result [2] | binding result [3] |
| --- | --- | --- | --- |
| B1 | binds | binds | – |
| B2 | binds | binds | – |
| B3 | binds | – | binds |
| B4 | – | binds | – |
